“Also recorded” adds a separate entry of the source.
How the values were obtained:
[1] = target: T1, human Axl (rhAxl-Fc chimera) (Homo sapiens, UniProt P30530); test: Biacore kinetic analysis (surface plasmon resonance) on immobilised rhAxl-Fc; format: binding; conditions: rhAxl immobilized on Biacore sensor chip, 25° C., 1:1 Langmuir binding model
T1 construct: Soluble recombinant antigens corresponding to the extracellular domains of members of the human TAM receptor family; Fc; purchased R&D Systems 154-AL
Experimental: Kinetic analysis of murine MAb 10G5 interacting with rhAxl immobilized on the surface of the Biacore sensor chip. Overlay plots of sensograms for different antibody concentrations (0.3-166.7 nM for murine 10G5) are shown. The precise kinetic analysis was performed using BIA evaluation software and curve fitting according to 1:1 Langmuir binding model. […]
Affinity determination of anti-Axl antibody 10G5 was performed at 25° C. by surface plasmon resonance measurements using Biacore 3000 instrument (GE Healthcare). As a solid antigen-coated surface, a sensor chip CM5 with immobilized rhAxl-Fc chimera (R&D Systems, Cat. no. 154-AL) at density 190 RU was used.
For the kinetics measurements, different concentrations of anti-Axl antibodies (from 0.3 to 666.7 nM) in HBS-EP buffer (Biacore, Cat. no. BR-1001-88) were injected at flow rate of 30 μL/min with 3 min injection time followed by 5 min dissociation (buffer alone). After each cycle, the surface was regenerated by 30 sec injection of a regeneration solution (10 mM HCl, 1 M NaCl) at flow rate 50 μL/min.
The kinetic association (on-rate, kon) and dissociation (off-rate, koff) rates were calculated using BIAevaluation software and 1:1 Langmuir binding model. The equilibrium dissociation constant (KD) was calculated as the koff/kon ratio. The half-life (t1/2) of the formed antibody-antigen complexes was calculated as the ln 2/koff ratio. […]

Mer (rhMer-Fc chimera) = target: T2, Mer (rhMer-Fc chimera) (Homo sapiens, UniProt Q12866); test: Biacore binding analysis on immobilised human Mer; conditions: 10 μg/mL in HBS-EP, 25° C.
T2 construct: Soluble recombinant antigens corresponding to the extracellular domains of members of the human TAM receptor family; Fc; purchased R&D Systems 891-MR
T2 sequence (Q12866 21-505 limits assumed): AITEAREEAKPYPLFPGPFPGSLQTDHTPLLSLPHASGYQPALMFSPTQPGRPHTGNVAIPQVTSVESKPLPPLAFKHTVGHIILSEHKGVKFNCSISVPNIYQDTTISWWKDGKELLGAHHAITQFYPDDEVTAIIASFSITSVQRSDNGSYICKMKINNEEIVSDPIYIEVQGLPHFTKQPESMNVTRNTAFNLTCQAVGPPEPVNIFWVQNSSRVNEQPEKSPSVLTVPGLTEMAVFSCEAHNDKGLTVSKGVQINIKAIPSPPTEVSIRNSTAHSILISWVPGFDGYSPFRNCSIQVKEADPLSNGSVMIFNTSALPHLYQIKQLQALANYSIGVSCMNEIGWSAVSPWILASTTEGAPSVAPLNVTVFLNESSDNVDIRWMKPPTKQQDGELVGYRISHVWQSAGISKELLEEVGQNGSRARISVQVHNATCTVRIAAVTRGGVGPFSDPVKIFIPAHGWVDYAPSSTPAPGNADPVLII
Experimental: All binding experiments were performed using Biacore 3000 instrument (GE Healthcare) at 25° C. Soluble recombinant antigens corresponding to the extracellular domains of members of the human TAM receptor family, Axl (rhAxl-Fc chimera; R&D Systems, Cat. no. 154-AL), Mer (rhMer-Fc chimera; R&D Systems, Cat. no. 891-MR) and Tyro3 (rhTyro3/Dtk-Fc chimera; R&D Systems, Cat. no. 859-DK) were immobilized on the surface of CM5 sensor chip using amine coupling at the surface density of 393.0, 303.6 and 364.0 resonance units (RU), respectively. The Biacore run was performed in an automatic mode using Binding analysis wizard. Samples containing MAb 10G5 at concentration 10 μg/mL in HBS-EP buffer (GE Healthcare) were injected over the surfaces with immobilized antigens at flow rate of 30 μL/min for 3 min (association) followed by 5 min dissociation.

[2] = test system: Axl signalling (phosphorylation of Akt on Ser473) in HeLa cells; test: Gas6-induced Axl downstream signalling, phospho-Akt (Ser473) Western blot; format: cell-based, human; conditions: pre-incubation 1 μg/mL 1 hr, then mouse Gas6 10 μg/mL 20 min
Experimental: The experiments were performed using human cervical cancer derived cell line HeLa (ATCC® CCL-2™). The cells were grown in T175 flasks to 80% confluency in MEM culture medium (Sigma) supplemented with 10% FBS, penicillin-streptomycin and L-glutamine. The cells were washed with PBS and detached by treatment with 0.25% Trypsin/EDTA (Sigma) followed by centrifugation and resuspension in fresh medium (MEM/0.5% FBS). The cells were seeded in Petri dishes (3×10^6 cells per dish) in MEM medium supplemented with 10% FBS. After three hrs incubation at 37° C., the cells were washed with PBS and kept in starvation medium (MEM/0.5% FBS) overnight. The cells were pre-incubated with anti-Axl antibody 10G5 at concentration 1 μg/mL for 1 hr followed by stimulation with Axl ligand, recombinant mouse Gas6 (R&D Systems), at concentration 10 μg/mL for 20 min. […] Detection with anti-GAPDH antibody (Millipore) was used as loading control.

Hu-Axl-Fc = target: T3, Hu-Axl-Fc (Homo sapiens, UniProt P30530); test: Biacore competition binding c10G5 versus YW327.6S2-var (Example 21); conditions: 666.7 nM each, first and second sample
T3 construct: Fc
Experimental: Injections: • Use Flow Cell(s): 2 with 1 as reference • Flow Rate: 30 (μL/min) • Number of Injections: 2 • First Sample: • Injection Time: 3 (min) • Wait After Injection: 2.5 (min) • Second Sample: • Injection Time: 3 (min) • Wait After Injection: 2.5 (min)
The competitive binding analysis was performed by injecting a first sample (MAbs c10G5 or YW327.6S2-var) at a concentration sufficient to reach plateau within 1-2 min followed by injection of MAb YW327.6S2-var as a second sample (FIG. 21A).
In a second part of the of experiment, the antibody YW327.6S2-var was injected as a first sample followed by injection of either antibody YW327.6S2-var or c10G5 as a second sample (FIG. 21B).

B1: murine 10G5: mouse monoclonal anti-human Axl antibody from hybridoma WR-10G5-E5; VH SEQ ID NO: 28, VL SEQ ID NO: 29 (antibody, listed as Mus musculus, V domains shown)
VH: QVQLQQSGAELVRPGASVKLSCKASGYSFTDFYINWVRQRPGQGLEWIARIFPGGDNTYYNEKFKGKATLTAEESSSTAYIQLSSLTSEDSAVYFCARRGLYYAMDYWGQGISVTVSS
VL: DVLMTQTPLSLPVSLGDQASISCRSSQSLVHSNGIPYLHWYLQKPGQSPKLLIYRVSNRFSGVPDRFSGSGSGTDFTLKISRVEAEDLGVYFCSQGTHVPPTFGGGTKLEIK
modifications: (1)..(118) Mus musculus 10G5 VH domain; (1)..(112) Mus musculus 10G5 VL domain
[1]
  Off-rate (koff): 0.000439 s⁻¹
  On-rate (kon): 829000 M⁻¹ s⁻¹
Mer (rhMer-Fc chimera)
  Binding to recombinant human Mer: no significant binding
[2]
  Gas6-induced phosphorylation of Akt on Ser473: significantly reduces; also recorded: significantly be reduced
Hu-Axl-Fc
  Competition between 10G5 and YW327.6S2 for binding to Axl: does not compete

B2: c10G5: chimeric (mouse variable/human constant) IgG1 antibody with the 10G5 VH and VL (antibody, V domains shown)
VH: B1 VH
VL: B1 VL
[1]
  Off-rate (koff): 0.000169 s⁻¹
  On-rate (kon): 1.64e+06 M⁻¹ s⁻¹
